# Measured values reported in US20170283834A1, “Processes for Producing A Fermentation Product Using A Fermenting Organism” (Novozymes A/S, priority 2014, published 2017).
# System: zein
# Assay: Relative activity assay of protease variants (zein micro titer plate)
# Assay type: biochemical
# Conditions: for Relative activity 65° C./60° C.: Table 2
# Description: Each well contains 200 microL of 0.05-0.1% of zein (Sigma), 0.25 mM ZnSO4 and 1% of agar in 20 mM sodium acetate buffer, pH 4.5.
# Yeast clones on SC-glucose were inoculated to a well of a 96-well micro titre plate containing YPD+Zn medium and cultivated at 28° C. for 3 days. The culture supernatants were applied to a 96-well zein micro titer plate and incubated at at least 2 temperatures (ex. 60° C. and 65° C., 70° C. and 75° C., 70° C. and 80° C.) for more than 4 hours or overnight. The turbidity of zein in the plate was measured as A630 and the relative activity (higher/lower temperatures) was determined as an indicator of thermoactivity improvement. The clones with higher relative activity than the parental variant were selected and the sequence was determined.
Molecule,Relative activity 65° C./60° C.,Relative activity 70° C./65° C. (Table 3),Relative activity 75° C./65° C. (Table 3)
"JTP005: protease variant of SEQ ID NO: 3: A112P (protein, listed as Thermoascus aurantiacus) MRLVASLTALVALSVPVFPAAVNVKRASSYLEITLSQVSNTLIKAVVQNTGSDELSFVHLNFFKDPAPVKKVSVYRDGSEVQFEGILSRYKSTGLSRDAFTYLAPGESVEDVFDIASTYDLTSGGPVTIRTEGVVPYATANSTDIAGYISYSSNVLTIDVDGAAAATVSKAITPLDRRTRISSCSGSRQSALTTALRNAASLANAAADAAQSGSASKFSEYFKTTSSSTRQTVAARLRAVAREASSSSSGATTYYCDDPYGYCSSNVLAYTLPSYNIIANCDIFYTYLPPLTSTCHAQDQATTALHEFTHAPGVYSPGTDDLAYGYQAAMGLSSSQAVMNADTYALYANAIYLGC",43%,,
"JTP009: protease variant of SEQ ID NO: 3: D79K (protein, listed as Thermoascus aurantiacus) MRLVASLTALVALSVPVFPAAVNVKRASSYLEITLSQVSNTLIKAVVQNTGSDELSFVHLNFFKDPAPVKKVSVYRDGSEVQFEGILSRYKSTGLSRDAFTYLAPGESVEDVFDIASTYDLTSGGPVTIRTEGVVPYATANSTDIAGYISYSSNVLTIDVDGAAAATVSKAITPLDRRTRISSCSGSRQSALTTALRNAASLANAAADAAQSGSASKFSEYFKTTSSSTRQTVAARLRAVAREASSSSSGATTYYCKDPYGYCSSNVLAYTLPSYNIIANCDIFYTYLPALTSTCHAQDQATTALHEFTHAPGVYSPGTDDLAYGYQAAMGLSSSQAVMNADTYALYANAIYLGC",69%,,
"JTP019: protease variant of SEQ ID NO: 3: A126V (protein, listed as Thermoascus aurantiacus) MRLVASLTALVALSVPVFPAAVNVKRASSYLEITLSQVSNTLIKAVVQNTGSDELSFVHLNFFKDPAPVKKVSVYRDGSEVQFEGILSRYKSTGLSRDAFTYLAPGESVEDVFDIASTYDLTSGGPVTIRTEGVVPYATANSTDIAGYISYSSNVLTIDVDGAAAATVSKAITPLDRRTRISSCSGSRQSALTTALRNAASLANAAADAAQSGSASKFSEYFKTTSSSTRQTVAARLRAVAREASSSSSGATTYYCDDPYGYCSSNVLAYTLPSYNIIANCDIFYTYLPALTSTCHAQDQATTVLHEFTHAPGVYSPGTDDLAYGYQAAMGLSSSQAVMNADTYALYANAIYLGC",69%,,
"JTP010: protease variant of SEQ ID NO: 3: D79L (protein, listed as Thermoascus aurantiacus) MRLVASLTALVALSVPVFPAAVNVKRASSYLEITLSQVSNTLIKAVVQNTGSDELSFVHLNFFKDPAPVKKVSVYRDGSEVQFEGILSRYKSTGLSRDAFTYLAPGESVEDVFDIASTYDLTSGGPVTIRTEGVVPYATANSTDIAGYISYSSNVLTIDVDGAAAATVSKAITPLDRRTRISSCSGSRQSALTTALRNAASLANAAADAAQSGSASKFSEYFKTTSSSTRQTVAARLRAVAREASSSSSGATTYYCLDPYGYCSSNVLAYTLPSYNIIANCDIFYTYLPALTSTCHAQDQATTALHEFTHAPGVYSPGTDDLAYGYQAAMGLSSSQAVMNADTYALYANAIYLGC",75%,,
"JTP013: protease variant of SEQ ID NO: 3: D79L/S87P/A112P (protein, listed as Thermoascus aurantiacus) MRLVASLTALVALSVPVFPAAVNVKRASSYLEITLSQVSNTLIKAVVQNTGSDELSFVHLNFFKDPAPVKKVSVYRDGSEVQFEGILSRYKSTGLSRDAFTYLAPGESVEDVFDIASTYDLTSGGPVTIRTEGVVPYATANSTDIAGYISYSSNVLTIDVDGAAAATVSKAITPLDRRTRISSCSGSRQSALTTALRNAASLANAAADAAQSGSASKFSEYFKTTSSSTRQTVAARLRAVAREASSSSSGATTYYCLDPYGYCSPNVLAYTLPSYNIIANCDIFYTYLPPLTSTCHAQDQATTALHEFTHAPGVYSPGTDDLAYGYQAAMGLSSSQAVMNADTYALYANAIYLGC",90%,,
"JTP004: protease variant of SEQ ID NO: 3: S87P (protein, listed as Thermoascus aurantiacus) MRLVASLTALVALSVPVFPAAVNVKRASSYLEITLSQVSNTLIKAVVQNTGSDELSFVHLNFFKDPAPVKKVSVYRDGSEVQFEGILSRYKSTGLSRDAFTYLAPGESVEDVFDIASTYDLTSGGPVTIRTEGVVPYATANSTDIAGYISYSSNVLTIDVDGAAAATVSKAITPLDRRTRISSCSGSRQSALTTALRNAASLANAAADAAQSGSASKFSEYFKTTSSSTRQTVAARLRAVAREASSSSSGATTYYCDDPYGYCSPNVLAYTLPSYNIIANCDIFYTYLPALTSTCHAQDQATTALHEFTHAPGVYSPGTDDLAYGYQAAMGLSSSQAVMNADTYALYANAIYLGC",45%,,
"JTP008: protease variant of SEQ ID NO: 3: R2P (protein, listed as Thermoascus aurantiacus) MRLVASLTALVALSVPVFPAAVNVKRASSYLEITLSQVSNTLIKAVVQNTGSDELSFVHLNFFKDPAPVKKVSVYRDGSEVQFEGILSRYKSTGLSRDAFTYLAPGESVEDVFDIASTYDLTSGGPVTIRTEGVVPYATANSTDIAGYISYSSNVLTIDVDGAAAATVSKAITPLDRRTPISSCSGSRQSALTTALRNAASLANAAADAAQSGSASKFSEYFKTTSSSTRQTVAARLRAVAREASSSSSGATTYYCDDPYGYCSSNVLAYTLPSYNIIANCDIFYTYLPALTSTCHAQDQATTALHEFTHAPGVYSPGTDDLAYGYQAAMGLSSSQAVMNADTYALYANAIYLGC",71%,,
"JTP012: protease variant of SEQ ID NO: 3: D79L/S87P (protein, listed as Thermoascus aurantiacus) MRLVASLTALVALSVPVFPAAVNVKRASSYLEITLSQVSNTLIKAVVQNTGSDELSFVHLNFFKDPAPVKKVSVYRDGSEVQFEGILSRYKSTGLSRDAFTYLAPGESVEDVFDIASTYDLTSGGPVTIRTEGVVPYATANSTDIAGYISYSSNVLTIDVDGAAAATVSKAITPLDRRTRISSCSGSRQSALTTALRNAASLANAAADAAQSGSASKFSEYFKTTSSSTRQTVAARLRAVAREASSSSSGATTYYCLDPYGYCSPNVLAYTLPSYNIIANCDIFYTYLPALTSTCHAQDQATTALHEFTHAPGVYSPGTDDLAYGYQAAMGLSSSQAVMNADTYALYANAIYLGC",86%,,
"JTP036: protease variant of SEQ ID NO: 3: D79L/S87P/D142L (protein, listed as Thermoascus aurantiacus) MRLVASLTALVALSVPVFPAAVNVKRASSYLEITLSQVSNTLIKAVVQNTGSDELSFVHLNFFKDPAPVKKVSVYRDGSEVQFEGILSRYKSTGLSRDAFTYLAPGESVEDVFDIASTYDLTSGGPVTIRTEGVVPYATANSTDIAGYISYSSNVLTIDVDGAAAATVSKAITPLDRRTRISSCSGSRQSALTTALRNAASLANAAADAAQSGSASKFSEYFKTTSSSTRQTVAARLRAVAREASSSSSGATTYYCLDPYGYCSPNVLAYTLPSYNIIANCDIFYTYLPALTSTCHAQDQATTALHEFTHAPGVYSPGTLDLAYGYQAAMGLSSSQAVMNADTYALYANAIYLGC",,73%,73%
"JTP021: protease variant of SEQ ID NO: 3: M152R (protein, listed as Thermoascus aurantiacus) MRLVASLTALVALSVPVFPAAVNVKRASSYLEITLSQVSNTLIKAVVQNTGSDELSFVHLNFFKDPAPVKKVSVYRDGSEVQFEGILSRYKSTGLSRDAFTYLAPGESVEDVFDIASTYDLTSGGPVTIRTEGVVPYATANSTDIAGYISYSSNVLTIDVDGAAAATVSKAITPLDRRTRISSCSGSRQSALTTALRNAASLANAAADAAQSGSASKFSEYFKTTSSSTRQTVAARLRAVAREASSSSSGATTYYCDDPYGYCSSNVLAYTLPSYNIIANCDIFYTYLPALTSTCHAQDQATTALHEFTHAPGVYSPGTDDLAYGYQAARGLSSSQAVMNADTYALYANAIYLGC",59%,,
"JTP016: protease variant of SEQ ID NO: 3: A73C (protein, listed as Thermoascus aurantiacus) MRLVASLTALVALSVPVFPAAVNVKRASSYLEITLSQVSNTLIKAVVQNTGSDELSFVHLNFFKDPAPVKKVSVYRDGSEVQFEGILSRYKSTGLSRDAFTYLAPGESVEDVFDIASTYDLTSGGPVTIRTEGVVPYATANSTDIAGYISYSSNVLTIDVDGAAAATVSKAITPLDRRTRISSCSGSRQSALTTALRNAASLANAAADAAQSGSASKFSEYFKTTSSSTRQTVAARLRAVAREASSSSSGCTTYYCDDPYGYCSSNVLAYTLPSYNIIANCDIFYTYLPALTSTCHAQDQATTALHEFTHAPGVYSPGTDDLAYGYQAAMGLSSSQAVMNADTYALYANAIYLGC",52%,,
"JTP014: protease variant of SEQ ID NO: 3: D79L/S87P/A112P (protein, listed as Thermoascus aurantiacus) MRLVASLTALVALSVPVFPAAVNVKRASSYLEITLSQVSNTLIKAVVQNTGSDELSFVHLNFFKDPAPVKKVSVYRDGSEVQFEGILSRYKSTGLSRDAFTYLAPGESVEDVFDIASTYDLTSGGPVTIRTEGVVPYATANSTDIAGYISYSSNVLTIDVDGAAAATVSKAITPLDRRTRISSCSGSRQSALTTALRNAASLANAAADAAQSGSASKFSEYFKTTSSSTRQTVAARLRAVAREASSSSSGATTYYCLDPYGYCSPNVLAYTLPSYNIIANCDIFYTYLPPLTSTCHAQDQATTALHEFTHAPGVYSPGTDDLAYGYQAAMGLSSSQAVMNADTYALYANAIYLGC",88%,,
"JTP011: protease variant of SEQ ID NO: 3: D79M (protein, listed as Thermoascus aurantiacus) MRLVASLTALVALSVPVFPAAVNVKRASSYLEITLSQVSNTLIKAVVQNTGSDELSFVHLNFFKDPAPVKKVSVYRDGSEVQFEGILSRYKSTGLSRDAFTYLAPGESVEDVFDIASTYDLTSGGPVTIRTEGVVPYATANSTDIAGYISYSSNVLTIDVDGAAAATVSKAITPLDRRTRISSCSGSRQSALTTALRNAASLANAAADAAQSGSASKFSEYFKTTSSSTRQTVAARLRAVAREASSSSSGATTYYCMDPYGYCSSNVLAYTLPSYNIIANCDIFYTYLPALTSTCHAQDQATTALHEFTHAPGVYSPGTDDLAYGYQAAMGLSSSQAVMNADTYALYANAIYLGC",73%,,
